Literature values as cited in patent publication US20070140974A1, “Targeted nanoparticles for magnetic resonance imaging” (General Electric Company, priority 2005, published 2007).

Key:
[1] = room temperature, 1.5 Tesla magnetic field
uPAR = uPAR (Homo sapiens, UniProt Q03405)
uPAR, sequence (Q03405 23-305): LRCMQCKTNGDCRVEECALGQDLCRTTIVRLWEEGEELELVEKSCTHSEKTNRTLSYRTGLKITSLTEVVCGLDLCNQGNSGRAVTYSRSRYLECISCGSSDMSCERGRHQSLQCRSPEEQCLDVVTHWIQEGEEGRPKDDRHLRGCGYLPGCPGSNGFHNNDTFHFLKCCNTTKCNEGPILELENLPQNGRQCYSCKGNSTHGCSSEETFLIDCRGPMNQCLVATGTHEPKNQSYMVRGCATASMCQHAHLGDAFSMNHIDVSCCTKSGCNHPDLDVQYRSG

| R1 relaxivity [1] | Compound | binding of uPAR and inhibition of integrin or vitronectin binding (uPAR) |
| --- | --- | --- |
| 3 mM⁻¹ s⁻¹ | O=C([O-])CN(CCN(CC(=O)[O-])CC(=O)O)CCN(CC(=O)[O-])CC(=O)O.[Gd+3] [Gd-DTPA] | – |
| – | AEFFKLGPNGYVYLHSA | capable of binding uPAR and inhibiting binding of vitronectin |
| – | AELDLSTFYDIQYLLRT | capable of binding uPAR and inhibiting binding of vitronectin |
| – | AEPVYQYELDSYLRSYY | capable of binding uPAR and inhibiting binding of vitronectin |
| – | AESTYHHLSLGYMYTLN | capable of binding uPAR and inhibiting binding of integrin |
